Source: patent publication US20110318339A1 (FABRUS, published 2011)

Tests used:
[1] = target: T1, rHuman CD44/Fc Chimera, CF (Cat# 3660-CD) (human, UniProt P16070 21-220); experiment: Multispot ECL; Fab 58.1 nM
T1 construct: Bought from R&D Systems
Experimental: (§1) An 150 μl aliquot of 1% Bovine Serum Albumin (BSA) in Tris-buffered Saline Tween (TBST) was added to each well and allowed to incubate for 30 min at 20° C. followed by washing and tap drying to completely remove any residual solution. Subsequently, a 12.5 μl aliquot of 1% BSA TBST was added to each well followed by the addition of a 12.5 μl aliquot of a purified Fab. The plate was sealed and incubated for 1 hour at 20° C. with shaking.
(§2) Detection antibodies were prepared by individually conjugating both goat anti-human Kappa light chain polyclonal antibody (K3502-1MG, Sigma-Aldrich) and goat anti-human Lambda light chain polyclonal antibody (L1645-1 mL, Sigma-Aldrich) with Ruthenium (II) tris-bipyridine-(4-methylsulfone)-N-hydroxysuccinimide (SULFO-TAG NHS-ester, Meso Scale Discovery) according to the manufacturer's instructions. TAG-detection antibody at 25 μl was added to each well and allowed to incubate for 1 hour at 20° C. with shaking. Finally, 15 μl of Read Buffer P with Surfactant (Cat # R92PC-1, Meso Scale Discovery) was added to each well. The electrochemiluminescence was measured using a Sector Imager 2400 (Meso Scale Discovery). Data was analyzed by comparing the ECL signals for an antigen to the blank of each well. A signal to blank ratio of 4 or more was considered a “Hit” Fab.
(§3) To confirm a “Hit” from the initial Multispot ECL screening, a Fab concentration dependent titration was carried out to determine the Fab-antigen binding affinity.

[2] = target: T2, rHuman Erythropoietin R/Fc Chimera, CF (Cat# 963-ER) (human, UniProt P19235 25-250); experiment: Multispot ECL; Fab 58.1 nM
T2 construct: Bought from R&D Systems; also called EPO R/Fc; Epo R/Fc chimera
T2 sequence (looked up): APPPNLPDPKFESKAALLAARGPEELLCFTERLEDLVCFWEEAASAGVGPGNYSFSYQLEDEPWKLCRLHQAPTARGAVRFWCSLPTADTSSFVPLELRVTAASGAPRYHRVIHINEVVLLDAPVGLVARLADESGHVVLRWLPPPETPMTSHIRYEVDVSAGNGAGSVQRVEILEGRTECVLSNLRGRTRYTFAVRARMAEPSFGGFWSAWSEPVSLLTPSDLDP
Experimental: as §1, §2, §3

[3] = target: T3, rHuman Notch-1/Fc Chimera, CF (Cat# 3647-TK) (human, UniProt P46531 19-526); experiment: Multispot ECL; Fab 58.1 nM
T3 construct: Bought from R&D Systems
Experimental: as §1, §2, §3

[4] = target: T4, Recombinant Human DLL4 (Cat# 1506-D4/CF) (human, UniProt Q9NR61 27-529); experiment: Multispot ECL; Fab 58.1 nM
T4 construct: Bought from R&D Systems; also called rHuman DLL4; hDLL4
Experimental: as §1, §2, §3

[5] = target: T5, rHuman IGF-1 sR, (IGF-1 sR), CF (Cat# 391-GR) (human, UniProt P08069 31-932); experiment: Multispot ECL; Fab 58.1 nM
T5 construct: Bought from R&D Systems; also called insulin-like growth factor-1 soluble receptor
Experimental: as §1, §2, §3

[6] = target: T6, rHuman ErbB2/Fc Chimera, CF (Cat# 1129-ER) (human, UniProt P04626 23-652); experiment: Multispot ECL; Fab 58.1 nM
T6 construct: Bought from R&D Systems; also called human epidermal growth factor 2 receptor (ErbB2)
Experimental: as §1, §2, §3

[7] = target: T1, rHuman CD44/Fc Chimera, CF (Cat# …); experiment: Multispot ECL; Fab 930 nM
Experimental: as §1, §2, §3

[8] = target: T2, rHuman Erythropoietin R/Fc Chimera, CF …; experiment: Multispot ECL; Fab 930 nM
Experimental: as §1, §2, §3

[9] = target: T3, rHuman Notch-1/Fc Chimera, CF (Cat# …); experiment: Multispot ECL; Fab 930 nM
Experimental: as §1, §2, §3

[10] = target: T4, Recombinant Human DLL4 (Cat# 1506-D4/CF); experiment: Multispot ECL; Fab 930 nM
Experimental: as §1, §2, §3

[11] = target: T5, rHuman IGF-1 sR, (IGF-1 sR), CF (Cat# …); experiment: Multispot ECL; Fab 930 nM
Experimental: as §1, §2, §3

[12] = target: T6, rHuman ErbB2/Fc Chimera, CF (Cat# …); experiment: Multispot ECL; Fab 930 nM
Experimental: as §1, §2, §3

[13] = target: T1, rHuman CD44/Fc Chimera, CF (Cat# …); experiment: Multispot ECL; Fab 232.5 nM
Experimental: as §1, §2, §3

[14] = target: T2, rHuman Erythropoietin R/Fc Chimera, CF …; experiment: Multispot ECL; Fab 232.5 nM
Experimental: as §1, §2, §3

[15] = target: T3, rHuman Notch-1/Fc Chimera, CF (Cat# …); experiment: Multispot ECL; Fab 232.5 nM
Experimental: as §1, §2, §3

[16] = target: T4, Recombinant Human DLL4 (Cat# 1506-D4/CF); experiment: Multispot ECL; Fab 232.5 nM
Experimental: as §1, §2, §3

[17] = target: T5, rHuman IGF-1 sR, (IGF-1 sR), CF (Cat# …); experiment: Multispot ECL; Fab 232.5 nM
Experimental: as §1, §2, §3

[18] = target: T6, rHuman ErbB2/Fc Chimera, CF (Cat# …); experiment: Multispot ECL; Fab 232.5 nM
Experimental: as §1, §2, §3

[19] = target: T1, rHuman CD44/Fc Chimera, CF (Cat# …); experiment: Multispot ECL; Fab 14.5 nM
Experimental: as §1, §2, §3

[20] = target: T2, rHuman Erythropoietin R/Fc Chimera, CF …; experiment: Multispot ECL; Fab 14.5 nM
Experimental: as §1, §2, §3

[21] = target: T3, rHuman Notch-1/Fc Chimera, CF (Cat# …); experiment: Multispot ECL; Fab 14.5 nM
Experimental: as §1, §2, §3

[22] = target: T4, Recombinant Human DLL4 (Cat# 1506-D4/CF); experiment: Multispot ECL; Fab 14.5 nM
Experimental: as §1, §2, §3

[23] = target: T5, rHuman IGF-1 sR, (IGF-1 sR), CF (Cat# …); experiment: Multispot ECL; Fab 14.5 nM
Experimental: as §1, §2, §3

[24] = target: T6, rHuman ErbB2/Fc Chimera, CF (Cat# …); experiment: Multispot ECL; Fab 14.5 nM
Experimental: as §1, §2, §3

ECL signal [1]: 375
ECL signal [2]: 829
ECL signal [3]: 388
ECL signal [4]: 1880
ECL signal [5]: 343
ECL signal [6]: 322
ECL signal [7]: 1920
ECL signal [8]: 3010
ECL signal [9]: 2210
ECL signal [10]: 8160
ECL signal [11]: 1920
ECL signal [12]: 2220
ECL signal [13]: 607
ECL signal [14]: 1470
ECL signal [15]: 778
ECL signal [16]: 3590
ECL signal [17]: 569
ECL signal [18]: 779
ECL signal [19]: 212
ECL signal [20]: 660
ECL signal [21]: 317
ECL signal [22]: 1150
ECL signal [23]: 234
ECL signal [24]: 274
B1: Fab VH1-46_IGHD6-13*01_IGHJ4*01 & O1_IGKJ1*01 (Fab, V domains shown)
VH: QVQLVQSGAEVKKPGASVKVSCKASGYTFTSYYMHWVRQAPGQGLEWMGIINPSGGSTSYAQKFQGRVTMTRDTSTSTVYMELSSLRSEDTAVYYCAREGYSSSWYDYFDYWGQGTLVTVSS
VL: DIVMTQTPLSLPVTPGEPASISCRSSQSLLDSDDGNTYLDWYLQKPGQSPQLLIYTLSYRASGVPDRFSGSGSGTDFTLKISRVEAEDVGVYYCMQRIEFPSWTFGQGTKVEIKR
notes: Germline-derived Fab from E. coli: VH in Plasmid A (CH1, His6 and Flag tags), VL in Plasmid C (kappa CL)
